{
  "source": "the supplement of paper PMC12042874",
  "note": "± gives the uncertainty stated by the source.",
  "data": [
    {"assay": "amyloid nucleation score (Sup35N fusion, yeast selection) (log enrichment); library NNK1; higher = more nucleation; inactive = no reads after selection", "outline": "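Sup35N was fused to peptides of 20 random codons and expressed in psi-negative yeast, which were induced with 100 μM copper sulfate for 24 hours and then grown on medium lacking adenine and uracil for 7 days at 30°C. Plasmid inserts from input and output were sequenced on Illumina. The nucleation score is the DiMSum log enrichment of output over input reads, centred on the mode score of non-aggregating sequences. Sequences with under 100 input reads were left out, and random libraries had three technical output replicates.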", "values": [
      {"substance": "VVVFSTF", "amyloid nucleation score": "-0.376 ± 1.4"},
      {"substance": "SYKVTLVYSRHVVGVKVTRI", "amyloid nucleation score": "0.233 ± 0.86"},
      {"substance": "CVNLFSLLFWTLAIRCLNFR", "amyloid nucleation score": "-0.025 ± 0.49"},
      {"substance": "YKVCRMCAKGCSDSFRPVRA", "amyloid nucleation score": "0.555 ± 0.48"},
      {"substance": "TKLAY", "amyloid nucleation score": "0.445 ± 0.49"},
      {"substance": "YLVFMQEITLTKQLLWQSMR", "amyloid nucleation score": "-0.224 ± 0.39"},
      {"substance": "AFGADKTRYMSVFTKCVS", "amyloid nucleation score": "0.253 ± 0.37"},
      {"substance": "DIFRIYMWVHCMDRHSDGTV", "amyloid nucleation score": "2.29 ± 0.27"},
      {"substance": "FYLFVMKDASILYLVCSFSF", "amyloid nucleation score": "-0.46 ± 0.4"},
      {"substance": "HSTCLPNTIQTLRRRALSCR", "amyloid nucleation score": "-1.22 ± 1.9"},
      {"substance": "ANVNSWTRPAIMIVLDWGVP", "amyloid nucleation score": "0.868 ± 0.58"},
      {"substance": "GSTSCK", "amyloid nucleation score": "0.79 ± 0.43"},
      {"substance": "LHNYLLCTRVNRIDVLRMTL", "amyloid nucleation score": "-0.854 ± 0.37"},
      {"substance": "IRDDCTYYVSAE", "amyloid nucleation score": "0.634 ± 0.23"},
      {"substance": "GKYKTFKNNITP", "amyloid nucleation score": "-0.416 ± 1.2"},
      {"substance": "RCTLISRHDWGYANWMRLLL", "amyloid nucleation score": "4.81 ± 0.077"},
      {"substance": "RNTFHFNNMALPVLQT", "amyloid nucleation score": "-1.23 ± 0.77"},
      {"substance": "ANSSF", "amyloid nucleation score": "-0.126 ± 0.54"},
      {"substance": "NHSLMGVSTSFWI", "amyloid nucleation score": "-0.334 ± 0.45"},
      {"substance": "LLPLLSMGRTPLRCKPMASS", "amyloid nucleation score": "0.058 ± 0.3"},
      {"substance": "ILESCIWDITRLRWPYGSSW", "amyloid nucleation score": "0.741 ± 0.21"},
      {"substance": "GVTSR", "amyloid nucleation score": "1.25 ± 0.72"},
      {"substance": "SVRTCFNRYLKQVRVWSYAG", "amyloid nucleation score": "-0.165 ± 1.6"},
      {"substance": "SASVAHLCDYVVENI", "amyloid nucleation score": "0.018 ± 0.54"},
      {"substance": "VPCMWRFTHVSKYEGKSRTL", "amyloid nucleation score": "-0.452 ± 0.42"},
      {"substance": "FHEDKIS", "amyloid nucleation score": "1.34 ± 0.36"},
      {"substance": "VMGVLYSRADSVVEIGLLRV", "amyloid nucleation score": "-0.972 ± 1"},
      {"substance": "VSESDKEGLEK", "amyloid nucleation score": "-1.17 ± 1.6"},
      {"substance": "TILVNKRR", "amyloid nucleation score": "-1.28 ± 0.65"},
      {"substance": "YMLWSVPRLWCRVWLPTVAC", "amyloid nucleation score": "0.585 ± 0.64"},
      {"substance": "MWYNCFMTNPGFQLSPMGSI", "amyloid nucleation score": "0.851 ± 0.55"},
      {"substance": "TRISFRKGV", "amyloid nucleation score": "-0.54 ± 0.5"},
      {"substance": "PESCANSWSMSYGAFGAVYC", "amyloid nucleation score": "inactive"},
      {"substance": "DMTWNKQHFYGCSISYRSGT", "amyloid nucleation score": "5.99 ± 0.086"},
      {"substance": "DSSSYICSLSSPYSWSISFF", "amyloid nucleation score": "7.366 ± 0.07"},
      {"substance": "IILRFVCDI", "amyloid nucleation score": "inactive"},
      {"substance": "MTPTTWLYPVILTSSLS", "amyloid nucleation score": "0.44 ± 0.84"},
      {"substance": "TSGSCSACCLWVRGDNETFM", "amyloid nucleation score": "7.881 ± 0.048"},
      {"substance": "NQIFVQCSVGKAWDRSKSVD", "amyloid nucleation score": "4.12 ± 0.081"},
      {"substance": "RSVSLKWQSRKHWLLTLTLA", "amyloid nucleation score": "0.931 ± 0.32"},
      {"substance": "SSKYTCFSDYKKCVYTLWRL", "amyloid nucleation score": "0.292 ± 0.6"},
      {"substance": "RYYGLFVYVARIYSALRSCK", "amyloid nucleation score": "-0.104 ± 0.33"},
      {"substance": "SLSTGIAFINLAACVYSKLT", "amyloid nucleation score": "2.85 ± 0.18"},
      {"substance": "TLVVGMRLDNHDHA", "amyloid nucleation score": "1.14 ± 0.21"},
      {"substance": "DTGSFFVSVRLSAWVIPPCK", "amyloid nucleation score": "-0.063 ± 0.39"},
      {"substance": "FKAHRMVLHGYIGSMERG", "amyloid nucleation score": "-0.186 ± 1.1"},
      {"substance": "YCCYAVRACFN", "amyloid nucleation score": "7.509 ± 0.057"},
      {"substance": "RVDGVKIRGYNWHLLMITCI", "amyloid nucleation score": "0.083 ± 0.6"},
      {"substance": "RSSCL", "amyloid nucleation score": "-2.09 ± 2.4"},
      {"substance": "YQDFYMLSRLAKLGG", "amyloid nucleation score": "0.36 ± 0.61"},
      {"substance": "IFHLCFLKGNGSFMLYKRHT", "amyloid nucleation score": "-0.462 ± 0.51"},
      {"substance": "SWNYLVTDAKRRDGGEERVR", "amyloid nucleation score": "-0.851 ± 1.7"},
      {"substance": "ETSGSPFILIICIYELNVVM", "amyloid nucleation score": "4.61 ± 0.07"},
      {"substance": "TWNRRVRVYTGYCPNVGMSL", "amyloid nucleation score": "4.94 ± 0.059"},
      {"substance": "KKVINPYFFGCTGCNNTQRK", "amyloid nucleation score": "-0.149 ± 0.31"},
      {"substance": "MTYTSWMMNRFNITNSYNLV", "amyloid nucleation score": "0.755 ± 0.97"},
      {"substance": "EVGNCFLESPGMVYVVGRDR", "amyloid nucleation score": "0.51 ± 0.52"},
      {"substance": "IIWIRAVPLMTRNEGVCECG", "amyloid nucleation score": "-0.982 ± 1.8"},
      {"substance": "VGLISALANTGMFRTSNCVF", "amyloid nucleation score": "0.426 ± 0.5"},
      {"substance": "VRSFNRGFKMHTYIPTHFLW", "amyloid nucleation score": "-0.55 ± 0.26"},
      {"substance": "GICHSPGWCC", "amyloid nucleation score": "2.69 ± 0.14"},
      {"substance": "VSTLA", "amyloid nucleation score": "inactive"},
      {"substance": "VLQQGTSLTKYV", "amyloid nucleation score": "0.509 ± 0.42"},
      {"substance": "FHAWSVFFIVRCLTEVRGYL", "amyloid nucleation score": "-0.081 ± 0.34"},
      {"substance": "AVCIMFRVNRFIRIVNTGGC", "amyloid nucleation score": "0.042 ± 0.58"},
      {"substance": "PVKVWARTVQSVAWLFSCG", "amyloid nucleation score": "-0.016 ± 1.4"},
      {"substance": "NKLTSCTVSHCL", "amyloid nucleation score": "-0.125 ± 0.44"},
      {"substance": "TIKEGSLITTDAKYLMGMMK", "amyloid nucleation score": "2.03 ± 0.19"},
      {"substance": "TVRSYRSGRCYNFIVNRERA", "amyloid nucleation score": "-0.177 ± 0.75"},
      {"substance": "VNFYDLVL", "amyloid nucleation score": "0.318 ± 0.46"},
      {"substance": "SGDRAYFSKFSVCIPRDRVQ", "amyloid nucleation score": "-0.046 ± 0.67"},
      {"substance": "LQAAGLRFGRICLFLDK", "amyloid nucleation score": "-0.259 ± 1.2"},
      {"substance": "FTVSRPIMYIVYNCLHSVCV", "amyloid nucleation score": "4.61 ± 0.049"},
      {"substance": "RGTDLSSYTSFVC", "amyloid nucleation score": "0.28 ± 0.41"},
      {"substance": "FIVTYSNTIRYSMPSKLPWQ", "amyloid nucleation score": "3.26 ± 0.077"},
      {"substance": "YLVRVMFWLLGRCEA", "amyloid nucleation score": "inactive"},
      {"substance": "CKCWFM", "amyloid nucleation score": "0.307 ± 0.52"},
      {"substance": "SGAPLDAGFNIA", "amyloid nucleation score": "0.227 ± 0.49"},
      {"substance": "GIGAVSAC", "amyloid nucleation score": "0.317 ± 0.56"},
      {"substance": "TEGYVFKCVGKMFLFRFSFA", "amyloid nucleation score": "-0.114 ± 0.36"},
      {"substance": "LFRFNWLDSNPV", "amyloid nucleation score": "inactive"},
      {"substance": "HRQTNKGEHIQDHAAMLVFR", "amyloid nucleation score": "-0.18 ± 0.63"},
      {"substance": "MYHLSGVSYMFSLCSDCRRL", "amyloid nucleation score": "8.122 ± 0.066"},
      {"substance": "VSCRR", "amyloid nucleation score": "inactive"},
      {"substance": "CSPVYIEFRLRQVFVARA", "amyloid nucleation score": "1.26 ± 0.76"}
    ]}
  ]
}
